In patent US20180360946A1 (ALBERT EINSTEIN COLLEGE OF MEDICINE, published 2018):

Legend:
murine mAb 4E11 [1] = test: ELISA
mAb 2H12 [2] = molecular target: T1, mAb 2H12; test: ELISA
T1 construct: also called prototypic AB-loop mAb 2H12

mAb 3H5-1 = molecular target: T2, mAb 3H5-1; test: ELISA
T2 construct: also called prototypic FG-loop mAb 3H5-1

murine mAb 4E11 [3] = test: ELISA, purified DIII
mAb 2H12 [4] = molecular target: T1, mAb 2H12; test: ELISA, purified DIII
murine mAb 4E11 [5] = test: biolayer interferometry
mAb 2H12 [6] = molecular target: T1, mAb 2H12; test: biolayer interferometry
murine mAb 4E11 [7] = test: phage ELISA, phage-displayed DIII titrated on immobilized 4E11; parameters: unit not given here

B1: WT DENV2 EDIII (other)
chain: GMSYSMCTGKFKIVKEIAETQHGTIVIRVQYEGDGSPCKIPFEIMDLEKRHVLGRLITVNPIVTEKDSPVNIEAEPPFGDSYIIIGVEPGQLKLNWFKKGSSIGQ
notes: also called WT DENV2 DIII; DENV2 EDIII WT
Murine mAb 4E11 [1]
  EC50: 0.002 µM
mAb 2H12 [2]
  EC50: 0.0003 µM
mAb 3H5-1
  EC50: ~2000 µM
Murine mAb 4E11 [3]
  EC50: 0.0024 µM
mAb 2H12 [4]
  EC50: 0.00032 µM
Murine mAb 4E11 [5]
  Kd: ~4 pM
mAb 2H12 [6]
  Kd: 0.03 nM
Murine mAb 4E11 [7]
  EC50 (read off the curve): ~5e+08
